Experimental data: patent US20240076386

Assay: AC-SINS self-interaction

Polyreactivity negative control
AC-SINS (wavelength of maximum absorbance relative to blank, nm): 1 nm
